# Source: patent US20110091992A1 (AstraZeneca / MedImmune, published 2011)
# T1: Human FcγRIIB (human, UniProt P31994 43-217, limits assumed)
# T1 construct: The construct is not described
# T1 sequence (looked up): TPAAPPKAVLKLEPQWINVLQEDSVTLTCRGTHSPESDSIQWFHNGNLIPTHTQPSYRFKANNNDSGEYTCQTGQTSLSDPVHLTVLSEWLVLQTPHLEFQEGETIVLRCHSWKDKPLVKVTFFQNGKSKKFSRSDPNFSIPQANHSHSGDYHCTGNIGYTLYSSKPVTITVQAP
# T2: Human FcγRIIA (human, UniProt P12318 34-217, limits assumed)
# T2 construct: The construct is not described
# T2 sequence (looked up): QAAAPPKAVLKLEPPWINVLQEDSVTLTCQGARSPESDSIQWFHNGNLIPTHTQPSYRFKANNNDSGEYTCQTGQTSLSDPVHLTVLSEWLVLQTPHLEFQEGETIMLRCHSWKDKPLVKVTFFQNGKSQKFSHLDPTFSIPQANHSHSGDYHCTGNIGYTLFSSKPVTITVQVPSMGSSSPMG
# Legend:
# [1] = target: Human CD16 (V158 allotype), soluble (human) (UniProt P08637); assay: SPR (BIAcore 3000), Fc amine-coupled to CM5 chip, soluble CD16 V158 at 1 nM-1.6 µM, steady-state isotherm fit, 25 C
# Human FcγRIIB = target: T1, Human FcγRIIB; assay: SPR (BIAcore 3000), immobilised Fc/Mut3, human FcγRIIB injected at 8 µM
# Human FcγRIIA [2] = target: T2, Human FcγRIIA; assay: SPR (BIAcore 3000), immobilised Fc/Mut3, human FcγRIIA injected at 8 µM
# Human FcγRIIA [3] = target: T2, Human FcγRIIA; assay: SPR (BIAcore 3000), immobilised Fc/Mut2, human FcγRIIA injected at 8 µM
# Chain of Human CD16 (V158 allotype), soluble (human) (P08637 17-208 F176V): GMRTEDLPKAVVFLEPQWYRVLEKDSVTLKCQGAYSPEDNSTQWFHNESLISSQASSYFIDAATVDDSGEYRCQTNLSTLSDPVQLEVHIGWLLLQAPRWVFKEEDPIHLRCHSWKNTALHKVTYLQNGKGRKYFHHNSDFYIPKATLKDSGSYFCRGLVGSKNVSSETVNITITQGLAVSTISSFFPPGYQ
molecule,measurement,setting,value
Unmutated human Fc (from UniProt P0DOX5 225-449),Kd,[1],157 nM
"Fc/Mut3 (other, It was made in the same expression construct as the unmutated human Fc and expressed in HEK 293 cells) THTCPPCPAPELLGGPSVFLFPPKPKDTLMISRTPEVTCVVVDVSHEDPEVKFNWYVDGVEVHNAKTKPRENSTVVSVLTVLHQDWLNGKEYKCKVSNKALPAPIEKTISKAKGQPREPQVYTLPPSREEMTKNQVSLTCLVKGFYPSDIAVEWESNGQPENNYKTTPPVLDSDGSFFLYSKLTVDKSRWQQGNVFSCSVMHEALHNHYTQKSLSLSPGK",binding result,Human FcγRIIB,no binding (tested: 8 µM)
same,binding result,Human FcγRIIA [2],no binding (tested: 8 µM)
"Fc/Mut2 (other, It was made in the same expression construct as the unmutated human Fc and expressed in HEK 293 cells) THTCPPCPAPELLGGPSVFLFPPKPKDTLMISRTPEVTCVVVDVSHEDPEVKFNWYVDGVEVHNAKTKPRENSTYRVVSVLTVLHQDWLNGKEYKCKVSNKALPAPIEKTISKAKGQPREPQVYTLPPSREEMTKNQVSLTCLVKGFYPSDIAVEWESNGQPENNYKTTPPVLDSDGSFFLYSKLTVDKSRWQQGNVFSCSVMHEALHNHYTQKSLSLSPGK",binding result,Human FcγRIIA [3],no binding (tested: 8 µM)
